The values that follow come from EP4707292A2 (The University of North Carolina at Chapel Hill, dated 2026).

The target in assay [1] is T1, Adeno-associated virus 9 (AAV9) virion (adeno-associated virus 9).
T1 construct: Intact virion; capsid of VP1, VP2, VP3; also called AAV9/luc; AAV9 capsid
In words: co-IP with ADK9/LC-MS/MS, AAV9 + human serum vs control.

The target of assay [2] is T1, Adeno-associated virus 9 (AAV9) virion. The description is as above. The source holds these as a separate data set.
For assay [3], the target named is T2, Adeno-associated virus 8 (AAV8) virion (adeno-associated virus 8).
T2 construct: Intact virion with packaged vector genome; capsid of 60 subunits (VP1, VP2, VP3, overlapping products of one cap gene); also called AAV8/luc; AAV8 capsid
In words: co-IP/LC-MS/MS, AAV8 + human serum vs PBS control.

B1: Plasminogen (other)
chain: EPLDDYVNTQGASLFSVTKKQLGAGSIEECAAKCEEDEEFTCRAFQYHSKEQQCVIMAENRKSSIIIRMRDVVLFEKKVYLSECKTGNGKNYRGTMSKTKNGITCQKWSSTSPHRPRFSPATHPSEGLEENYCRNPDNDPQGPWCYTTDPEKRYDYCDILECEEECMHCSGENYDGKISKTMSGLECQAWDSQSPHAHGYIPSKFPNKNLKKNYCRNPDRELRPWCFTTDPNKRWELCDIPRCTTPPPSSGPTYQCLKGTGENYRGNVAVTVSGHTCQHWSAQTPHTHNRTPENFPCKNLDENYCRNPDGKRAPWCHTTNSQVRWEYCKIPSCDSSPVSTEQLAPTAPPELTPVVQDCYHGDGQSYRGTSSTTTTGKKCQSWSSMTPHRHQKTPENYPNAGLTMNYCRNPDADKGPWCFTTDPSVRWEYCNLKKCSGTEASVVAPPPVVLLPDVETPSEEDCMFGNGKGYRGKRATTVTGTPCQDWAAQEPHRHSIFTPETNPRAGLEKNYCRNPDGDVGGPWCYTTNPRKLYDYCDVPQCAAPSFDCGKPQVEPKKCPGRVVGGCVAHPHSWPWQVSLRTRFGMHFCGGTLISPEWVLTAAHCLEKSPRPSSYKVILGAHQEVNLEPHVQEIEVSRLFLEPTRKDIALLKLSSPAVITDKVIPACLPSPNYVVADRTECFITGWGETQGTFGAGLLKEAQLPVIENKVCNRYEFLNGRVQSTELCAGHLAGGTDSCQGDSGGPLVCFEKDKYILQGVTSWGLGCARPNKPGVYVRVSRFVTWIEGVMRNN
notes: also called PLG; PMG
On to B1, for which the “fold change” value in assay [1] and in assay [3] was 1.48 fold in each case. In addition, the Fold increase in assay [2] was determined as 3.23 fold.

B2: Fibrinogen alpha chain (other)
chain: GPRVVERHQSACKDSDWPFCSDEDWNYKCPSGCRMKGLIDEVNQDFTNRINKLKNSLFEYQKNNKDSHSLTTNIMEILRGDFSSANNRDNTYNRVSEDLRSRIEVLKRKVIEKVQHIQLLQKNVRAQLVDMKRLEVDIDIKIRSCRGSCSRALAREVDLKDYEDQQKQLEQVIAKDLLPSRDRQHLPLIKMKPVPDLVPGNFKSQLQKVPPEWKALTDMPQMRMELERPGGNEITRGGSTSYGTGSETESPRNPSSAGSWNSGSSGPGSTGNRNPGSSGTGGTATWKPGSSGPGSTGSWNSGSSGTGSTGNQNPGSPRPGSTGTWNPGSSERGSAGHWTSESSVSGSTGQWHSESGSFRPDSPGSGNARPNNPDWGTFEEVSGNVSPGTRREYHTEKLVTSKGDKELRTGKEKVTSGSTTTTRRSCSKTVTKTVIGPDGHKEVTKEVVTSEDGSDCPEAMDLGTLSGIGTLDGFRHRHPDEAAFFDTASTGKTFPGFFSPMLGEFVSETESRGSESGIFTNTKESSSHHPGIAEFPSRGKSSSYSKQFTSSTSYNRGDSTFESKSYKMADEAGSEADHEGTHSTKRGHAKSRPVRDCDDVLQTHPSGTQSGIFNIKLPGSSKIFSVYCDQETSLGGWLLIQQRMDGSLNFNRTWQDYKRGFGSLNDEGEGEFWLGNDYLHLLTQRGSVLRVELEDWAGNEAYAEYHFRVGSEAEGYALQVSSYEGTAGDALIEGSVEEGAEYTSHNNMQFSTFDRDADQWEENCAEVYGGGWWYNNCQAANLNGIYYPGGSYDPRNNSPYEIENGVVWVSFRGADYSLRAVRMKIRPLVTQ
notes: from human serum, identified by MS; also called FGA
B2: the “fold change” value in assay [1] and in assay [3] was 1.75 fold throughout. Further, the Fold increase in assay [2] was 4.95 fold.

B3: Fibrinogen gamma chain (other)
chain: YVATRDNCCILDERFGSYCPTTCGIADFLSTYQTKVDKDLQSLEDILHQVENKTSEVKQLIKAIQLTYNPDESSKPNMIDAATLKSRKMLEEIMKYEASILTHDSSIRYLQEIYNSNNQKIVNLKEKVAQLEAQCQEPCKDTVQIHDITGKDCQDIANKGAKQSGLYFIKPLKANQQFLVYCEIDGSGNGWTVFQKRLDGSVDFKKNWIQYKEGFGHLSPTGTTEFWLGNEKIHLISTQSAIPYALRVELEDWNGRTSTADYAMFKVGPEADKYRLTYAYFAGGDAGDAFDGFDFGDDPSDKFFTSHNGMQFSTWDNDNDKFEGNCAEQDGSGWWMNKCHAGHLNGVYYQGGTYSKASTPNGYDNGIIWATWKTRWYSMKKTTMKIIPFNRLTIGEGQQHHLGGAKQVRPEHPAETEYDSLYPEDDL
notes: also called FGG
As to B3, the “fold change” value in assay [1] and in assay [3] was 1.6 fold in each case. The Fold increase in assay [2] was 4.85 fold.

B4: Fibrinogen beta chain (other)
chain: GHRPLDKKREEAPSLRPAPPPISGGGYRARPAKAAATQKKVERKAPDAGGCLHADPDLGVLCPTGCQLQEALLQQERPIRNSVDELNNNVEAVSQTSSSSFQYMYLLKDLWQKRQKQVKDNENVVNEYSSELEKHQLYIDETVNSNIPTNLRVLRSILENLRSKIQKLESDVSAQMEYCRTPCTVSCNIPVVSGKECEEIIRKGGETSEMYLIQPDSSVKPYRVYCDMNTENGGWTVIQNRQDGSVDFGRKWDPYKQGFGNVATNTDGKNYCGLPGEYWLGNDKISQLTRMGPTELLIEMEDWKGDKVKAHYGGFTVQNEANKYQISVNKYRGTAGNALMDGASQLMGENRTMTIHNGMFFSTYDRDNDGWLTSDPRKQCSKEDGGGWWYNRCHAANPNGRYYWGGQYTWDMAKHGTDDGVVWMNWKGSWYSMRKMSMKIRPFFPQQ
notes: also called FGB
For the molecule B4, the “fold change” value in assay [1] and in assay [3] was 1.43 fold in each case. Besides, in assay [2], the Fold increase worked out at 4.97 fold.
